Measurements from publication PMC10638095, “Visualization of conformational transition of GRP94 in solution” (Life Science Alliance, 2023).

Target: the molecule itself
Experiment: SEC-SAXS; inline SEC-SAXS; 25 mM HEPES pH 8.0, 200 mM NaCl, 1 mM TCEP, with or without 1 mM ADP or AMPPNP; 25°C; 10 mg/ml protein, 100 μl injected; scattering fitted with dimer models (EOM, OLIGOMER)

B1: mouse GRP94 (22-754) (natural protein, UniProt P08113 22-754, looked up)
chain: DDEVDVDGTVEEDLGKSREGSRTDDEVVQREEEAIQLDGLNASQIRELREKSEKFAFQAEVNRMMKLIINSLYKNKEIFLRELISNASDALDKIRLISLTDENALAGNEELTVKIKCDKEKNLLHVTDTGVGMTREELVKNLGTIAKSGTSEFLNKMTEAQEDGQSTSELIGQFGVGFYSAFLVADKVIVTSKHNNDTQHIWESDSNEFSVIADPRGNTLGRGTTITLVLKEEASDYLELDTIKNLVRKYSQFINFPIYVWSSKTETVEEPLEEDEAAKEEKEESDDEAAVEEEEEEKKPKTKKVEKTVWDWELMNDIKPIWQRPSKEVEEDEYKAFYKSFSKESDDPMAYIHFTAEGEVTFKSILFVPTSAPRGLFDEYGSKKSDYIKLYVRRVFITDDFHDMMPKYLNFVKGVVDSDDLPLNVSRETLQQHKLLKVIRKKLVRKTLDMIKKIADEKYNDTFWKEFGTNIKLGVIEDHSNRTRLAKLLRFQSSHHSTDITSLDQYVERMKEKQDKIYFMAGSSRKEAESSPFVERLLKKGYEVIYLTEPVDEYCIQALPEFDGKRFQNVAKEGVKFDESEKTKESREATEKEFEPLLNWMKDKALKDKIEKAVVSQRLTESPCALVASQYGWSGNMERIMKAQAYQTGKDISTNYYASQKKTFEINPRHPLIRDMLRRIKEDEDDKTVMDLAVVLFETATLRSGYLLPDTKAYGDRIERMLRLSLNIDPEAQ
notes: GRP94 (endoplasmin), mouse, residues 22-754, with the full pre-N domain and the charged linker region preserved; The N-terminal Strep-tag II is followed by a thrombin site; no thrombin cleavage is described; The C-terminal 6xHis tag was removed with TEV protease; also called mGRP94; mGrp94; source: E. coli BL21 (DE3), purified (Histrap HP, TEV cleavage, Hitrap Q HP, second Histrap HP …)
- binding result: binds
